Drawing on PMC7531186 (Journal of the American Chemical Society, 2020), this text covers Kd for one molecule.

Experiment [1] addresses T1, SPOP ΔBACK^28–337 (UniProt O43791 28-337). Put plainly: fluorescence polarisation.
Experiment [2] addresses T1, SPOP ΔBACK^28–337. Put plainly: fluorescence polarisation. This is another data set of the same source. (Fluorescence polarisation rises when a labelled molecule tumbles more slowly, as on binding a larger partner.)

Read-outs that look alike come from different tables or passages of the source.

T1 sequence (O43791 28-337, stated change not applied): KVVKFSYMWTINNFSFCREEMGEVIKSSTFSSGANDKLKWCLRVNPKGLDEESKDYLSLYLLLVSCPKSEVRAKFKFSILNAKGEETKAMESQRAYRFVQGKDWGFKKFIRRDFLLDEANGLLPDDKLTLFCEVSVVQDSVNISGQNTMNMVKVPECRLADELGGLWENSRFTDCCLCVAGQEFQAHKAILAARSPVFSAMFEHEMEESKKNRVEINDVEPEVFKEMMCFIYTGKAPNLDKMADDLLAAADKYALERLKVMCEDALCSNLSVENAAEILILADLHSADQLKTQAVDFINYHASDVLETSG

B1: rhodamine-labeled His-cDAXX^495–740 (domain or fragment, UniProt Q9UER7 495-740, looked up)
chain: SPMSSLQISNEKNLEPGKQISRSSGEQQNKGRIVSPSLLSEEPLAPSSIDAESNGEQPEELTLEEESPVSQLFELEIEALPLDTPSSVETDISSSRKQSEEPFTTVLENGAGMVSSTSFNGGVSPHNWGDSGPPCKKSRKEKKQTGSGPLGNSYVERQRSVHEKNGKKICTLPSPPSPLASLAPVADSSTRVDSPSHGLVTSSLCIPSPARLSQTPHSQPPRPGTCKTSVATQCDPEEIIVLSDSD
modifications: labeled with Rhodamine Red C2 maleimide
Broadly, the Kd is the constant that tells how readily two partners part at equilibrium. Consider B1, for which the Kd in the experiment with SPOP ΔBACK^28–337 [1] was 10 µM; in the experiment with SPOP ΔBACK^28–337 [2], 17 µM.
